# Data taken from paper PMC3269530 (Journal of Molecular Biology, 2011).
# B1: ArfA-bc: joint B and C domains of ArfA, residues 73–326 (protein)
# chain: GASALSLSLLSISRSGNTVTLIGDFPDEAAKAALMTALNGLLAPGVNVIDQIHVDPVVRSLDFSSAEPVFTASVPIPDFGLKVERDTVTLTGTAPSSEHKDAVKRAATSTWPDMKIVNNIEVTGQAPPGPPASGPCADLQSAINAVTGGPIAFGNDGASLIPADYEILNRVADKLKACPDARVTINGYTDNTGSEGINIPLSAQRAKIVADYLVARGVAGDHIATVGLGSVNPIASNATPEGRAKNRRVEIVVN
# B2: ArfA-c: C domain of M. tuberculosis ArfA (Rv0899), residues 196–326 (protein)
# chain: GQAPPGPPASGPCADLQSAINAVTGGPIAFGNDGASLIPADYEILNRVADKLKACPDARVTINGYTDNTGSEGINIPLSAQRAKIVADYLVARGVAGDHIATVGLGSVNPIASNATPEGRAKNRRVEIVVN
# How the values were obtained:
# ArfA-c [1] = molecular target: ArfA-c (Mycobacterium tuberculosis, UniProt P9WIU5); assay: biochemical; format: binding
# ArfA-c [2] = format: binding, M. tuberculosis
# [3] = system: ArfA (S302 amide proton, β3-α4 loop); assay: Saturation transfer difference NMR; format: binding, M. tuberculosis
# [4] = format: binding, Mycobacterium tuberculosis, strain H37Rv; conditions: qualitative
molecule,measurement,setting,value
"CC(=O)N[C@H]1[C@@H](OP(=O)(O)OP(=O)(O)OC[C@H]2O[C@@H](n3ccc(=O)[nH]c3=O)[C@H](O)[C@@H]2O)O[C@H](CO)[C@@H](O)[C@@H]1O[C@H](C)C(=O)N[C@@H](C)C(=O)N[C@H](CCC(=O)N[C@@H](CCC[C@@H](N)C(=O)O)C(=O)N[C@H](C)C(=O)N[C@H](C)C(=O)O)C(=O)O [UMDP, uridine-5'-diphosphate–MurNAc–L-Ala–D-γ-Glu–m-DAP–D-Ala–D-Ala (Park's nucleotide)]",Kd,ArfA-c [1],~1000 µM
"CC(=O)N[C@H]1C(OP(=O)(O)OP(=O)(O)OC[C@H]2O[C@@H](n3ccc(=O)[nH]c3=O)[C@H](O)[C@@H]2O)O[C@H](CO)[C@@H](O)[C@@H]1O[C@H](C)C(=O)N[C@@H](C)C(=O)N[C@H](CCC(=O)N[C@@H](CCCCN)C(=O)N[C@H](C)C(=O)N[C@H](C)C(=O)O)C(=O)O (stereo partly drawn) [UMKP, uridine-5'-diphosphate–MurNAc–L-Ala–D-γ-Glu–L-Lys–D-Ala–D-Ala]",effect on the NMR spectrum of ArfA-c,ArfA-c [2],no effect
uridine-5'-diphosphate–MurNAc–L-Ala–D-γ-Glu–m-DAP–D-Ala– D-Ala [UMDP],proximity of S302 amide proton to MurNAc methyl protons,[3],in some proximity
same,Kd,ArfA-c [2],~1000 µM
B1,stabilization provided by the disulfide bond,"GSSG vs DTT, Sypro orange DSF, Fig. 2a",about 1 °C
B2,affinity for polymeric M. tuberculosis peptidoglycan,[4],strong (enough to precipitate the protein)
same,"temperature of thermal unfolding, pH 4","pH4, 15 µM protein, Sypro orange, 20-95°C, 0.03°C per second, Fig. 2d",65.0 °C
same,"temperature of thermal unfolding, pH 7","pH7, 15 µM protein, Sypro orange, 20-95°C, 0.03°C per second, Fig. 2d",63.2 °C
same,increase in temperature of thermal unfolding on lowering pH from 7 to 4,"pH 7 to 4, Sypro orange DSF, Fig. 2d",2 °C
